Laboratory results reported in publication PMC11301059, “The origin of esterase activity of Parkinson's disease causative factor DJ-1 implied by evolutionary trace analysis of its prokaryotic homolog HchA” (The Journal of Biological Chemistry, 2024).

Experiments:
[1] = substrate: CC(=O)Oc1ccc([N+](=O)[O-])cc1; assay: pNP formation, A400, initial velocity, Michaelis-Menten fit; type: biochemical, Homo sapiens; details: 50 mM sodium phosphate pH 7.0, 37 °C, 0.7 μM enzyme
From the text: pNP formation, A400, initial velocity, Michaelis-Menten fit on DJ-1

[2] = substrate: O=CC(=O)c1ccccc1; assay: PGO consumption, A250, initial velocity, Michaelis-Menten fit; type: biochemical, Homo sapiens; details: 20 mM sodium phosphate pH 7.0, 37 °C
From the text: PGO consumption, A250, initial velocity, Michaelis-Menten fit on DJ-1

[3] = substrate: O=CC(=O)c1ccccc1; assay: as above; type: biochemical, Escherichia coli; details: 20 mM sodium phosphate pH 7.0, 37 °C
From the text: PGO consumption, A250, initial velocity, Michaelis-Menten fit on HchA

[4] = substrate: CC(=O)Oc1ccc([N+](=O)[O-])cc1; assay: pNP formation, A400, initial velocity, Michaelis-Menten fit; type: biochemical, Escherichia coli; details: 50 mM sodium phosphate pH 7.0, 37 °C, 1 μM enzyme
From the text: pNP formation, A400, initial velocity, Michaelis-Menten fit on HchA

B1: DJ-1 (Homo sapiens) (protein)
chain: MASKRALVILAKGAEEMETVIPVDVMRRAGIKVTVAGLAGKDPVQCSRDVVICPDASLEDAKKEGPYDVVVLPGGNLGAQNLSESAAVKEILKEQENRKGLIAAICAGPTALLAHEIGFGSKVTTHPLAKDKMMNGGHYTYSENRVEKDGLILTSRGPGTSFEFALAIVEALNGKEVAAQVKAPLVLKD
notes: N-terminal His-tag (pET28a), expressed in E. coli BL21(DE3)+RIL, Ni-NTA purified, tag removal not mentioned
[1]
  Km: 4.76 ± 1.25 × 10^-3 M
  kcat: 5.47 ± 0.935 s⁻¹
  kcat/Km: 1180 ± 203 M⁻¹ s⁻¹
[2]; 2 μM enzyme
  Km: 5.22 ± 0.65 × 10^-5 M
  kcat: 0.12 ± 0.007 s⁻¹
  kcat/Km: 2400 ± 229 M⁻¹ s⁻¹

B2: DJ-1 (Homo sapiens; A107H) (protein)
chain: MASKRALVILAKGAEEMETVIPVDVMRRAGIKVTVAGLAGKDPVQCSRDVVICPDASLEDAKKEGPYDVVVLPGGNLGAQNLSESAAVKEILKEQENRKGLIAAICHGPTALLAHEIGFGSKVTTHPLAKDKMMNGGHYTYSENRVEKDGLILTSRGPGTSFEFALAIVEALNGKEVAAQVKAPLVLKD
notes: as for B1
[2]; 0.3 μM enzyme
  Km: 6.44 ± 1.13 × 10^-4 M
  kcat: 1.65 ± 0.127 s⁻¹
  kcat/Km: 2600 ± 303 M⁻¹ s⁻¹

B3: HchA (Escherichia coli K-12) (protein)
chain: MTVQTSKNPQVDIAEDNAFFPSEYSLSQYTSPVSDLDGVDYPKPYRGKHKILVIAADERYLPTDNGKLFSTGNHPIETLLPLYHLHAAGFEFEVATISGLMTKFEYWAMPHKDEKVMPFFEQHKSLFRNPKKLADVVASLNADSEYAAIFVPGGHGALIGLPESQDVAAALQWAIKNDRFVISLCHGPAAFLALRHGDNPLNGYSICAFPDAADKQTPEIGYMPGHLTWYFGEELKKMGMNIINDDITGRVHKDRKLLTGDSPFAANALGKLAAQEMLAAYAG
notes: N-terminal His-tag (pET21a), expressed in E. coli BL21(DE3)+RIL, Ni-NTA purified, tag removal not mentioned; dimer
[3]; 0.3 μM enzyme
  Km: 1.49 ± 0.40 × 10^-4 M
  kcat: 0.67 ± 0.053 s⁻¹
  kcat/Km: 4730 ± 1250 M⁻¹ s⁻¹

B4: HchA (Escherichia coli K-12; H186A) (protein)
chain: MTVQTSKNPQVDIAEDNAFFPSEYSLSQYTSPVSDLDGVDYPKPYRGKHKILVIAADERYLPTDNGKLFSTGNHPIETLLPLYHLHAAGFEFEVATISGLMTKFEYWAMPHKDEKVMPFFEQHKSLFRNPKKLADVVASLNADSEYAAIFVPGGHGALIGLPESQDVAAALQWAIKNDRFVISLCAGPAAFLALRHGDNPLNGYSICAFPDAADKQTPEIGYMPGHLTWYFGEELKKMGMNIINDDITGRVHKDRKLLTGDSPFAANALGKLAAQEMLAAYAG
notes: as for B3
[3]; 1.8 μM enzyme
  Km: 1.87 ± 0.24 × 10^-5 M
  kcat: 0.0491 ± 0.004 s⁻¹
  kcat/Km: 2640 ± 202 M⁻¹ s⁻¹
[4]
  Km: 4.76 ± 0.36 × 10^-3 M
  kcat: 3.11 ± 0.144 s⁻¹
  kcat/Km: 655 ± 19.4 M⁻¹ s⁻¹

B5: HchA (Escherichia coli K-12; D214A) (protein)
chain: MTVQTSKNPQVDIAEDNAFFPSEYSLSQYTSPVSDLDGVDYPKPYRGKHKILVIAADERYLPTDNGKLFSTGNHPIETLLPLYHLHAAGFEFEVATISGLMTKFEYWAMPHKDEKVMPFFEQHKSLFRNPKKLADVVASLNADSEYAAIFVPGGHGALIGLPESQDVAAALQWAIKNDRFVISLCHGPAAFLALRHGDNPLNGYSICAFPDAAAKQTPEIGYMPGHLTWYFGEELKKMGMNIINDDITGRVHKDRKLLTGDSPFAANALGKLAAQEMLAAYAG
notes: as for B3
[3]; 1.8 μM enzyme
  Km: 2.55 ± 0.47 × 10^-5 M
  kcat: 0.075 ± 0.005 s⁻¹
  kcat/Km: 2980 ± 355 M⁻¹ s⁻¹
